Test results as given in patent US20200317768A1 (published 2020).
Substitutions are numbered along the chain they refer to. Names and notes keep the numbering of the source.

B1: MS1032LO06-PK56 (M103205H795-PK56/M103202L889-SK1) (antibody, human IgG1, kappa)
heavy: QVTLKESGPVLVKPTETLTLTCTVSGIDLSHDDISWVRQAPGKGLEWVGIISYAGSTYYASWAKGRLTISKDTSKNQVVLTMTNMDPVDTATYYCARGVPAYSHGGDLWGQGTLVTVSSASTKGPSVFPLAPSSKSTSGGTAALGCLVKDYFPEPVTVSWNSGALTSGVHTFPAVLQSSGLYSLSSVVTVPSSSLGTQTYICNVNHKPSNTKVDKKVEPKSCDKTHTCPPCPAPELLNGPSVFLFPPKPKDTLMISRTPEVTCVVVDVSDEDPEVKFNWYVDGVEVHNAKTKPREEQYNSTYRVVSVLTVLHRDWLNGKEYKCKVSNKALPKPIEKTISKAKGQRREPQVYTLPPSREEMTKNQVSLTCLVKGFYPSDIAVEWESNGQPENNYKTTPPVLDSDGSFFLYSKLTVRKSRWQQGNVFSCSVMHEALHNHYTQKSLSLSP
light: DIVMTQSPATLSLSPGERATLSCTSSQSVYHANWLSWFQQKPGQPPKLLIYWASTLAYGVPSRFSGSGSGTDFTLTISSLQPEDAATYYCAGGYGGGRYAFGQGTKVEIKRTVAAPSVFIFPPSDEQLKSGTASVVCLLNNFYPREAKVQWKVDNALQSGNSQESVTEQDSKDSTYSLSSTLTLSKADYEKHKVYACEVTHQGLSSPVTKSFNRGEC
notes: CH PK56 = SG1 with G236N/H268D/Q311R/A330K/P343R/D413R (EU numbering); also called MS103205H795-PK56
B2: MS1032LO06-PK57 (M103205H795-PK57/M103202L889-SK1) (antibody, human IgG1, kappa)
heavy: B1 heavy with R345P, N386R
light: B1 light
notes: CH PK57 = SG1 with G236N/H268D/Q311R/A330K/N384R/D413R (EU numbering); also called MS103205H795-PK57

What was measured:
Test in all cases: SPR (BIACORE), antibody captured, soluble FcgR as analyte, 25C
[1] = target: T1, cynomolgus monkey FcγRIIa1 extracellular domain, C-terminal His-tag (cynomolgus monkey)
T1 construct: also called cyno FcγRIIa1; FcgRIIa1; not shown: His-tag added to the C-terminus
T1 chain: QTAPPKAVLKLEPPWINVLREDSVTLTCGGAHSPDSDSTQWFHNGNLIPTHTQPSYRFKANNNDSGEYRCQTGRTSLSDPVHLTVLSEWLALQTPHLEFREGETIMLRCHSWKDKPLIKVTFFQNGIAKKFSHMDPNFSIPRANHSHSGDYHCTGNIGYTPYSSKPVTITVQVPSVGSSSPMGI
Description: (§1) The kinetic analysis of interactions between these antibodies and FcγR was carried out using BIACORE® T200 or BIACORE® 4000 (GE Healthcare). HBS-EP+ (GE Healthcare) was used as the running buffer, and the measurement temperature was set to 25° C. A chip produced by immobilizing Protein A. Protein A/G or mouse anti-human IgG kappa light chain (BD Biosciences) onto a Series S Sensor Chip CM4 or CM5 (GE Healthcare) by the amine-coupling method was used. […] After the measurement, the antibody captured on the chip was washed off by allowing reaction with 10 mM glycine-HCl, pH1.5 and 25 mM NaOH so that the chip was regenerated and used repeatedly. The sensorgrams obtained as measurement results were analyzed by the 1:1 Langmuir binding model using the BIACORE® Evaluation Software to calculate the binding rate constant ka (L/mol/s) and dissociation rate constant kd (l/s), and the dissociation constant KD (mol/L) was calculated from these values. […] Regarding such interactions, KD values were calculated using the following 1:1 binding model described in BIACORE® T100 Software Handbook BR1006-48 Edition AE.
(§2) The behavior of interacting molecules according to the 1:1 binding model on BIACORE® can be described by Equation 1: Req=C·R max/(KD+C)+RI, wherein, Req is a plot of steady-state binding levels to analyte concentration. C is concentration, RI is bulk refractive index contribution in the sample, and Rmax is analyte binding capacity of the surface. When this equation is rearranged, KD can be expressed as Equation 2: KD=C·Rmax/(Req−RI)−C. KD can be calculated by substituting the values of Rmax, RI, and C into Equation 1 or Equation 2. From the current measurement conditions, RI=0, C=2 μmol/L can be used.

[2] = target: T2, cynomolgus monkey FcγRIIa2 extracellular domain, C-terminal His-tag (cynomolgus monkey)
T2 construct: also called cyno FcγRIIa2; FcgRIIa2; not shown: His-tag added to the C-terminus
T2 chain: T1 chain with P95T, T121A, I127K, A128S, K130N, D135N, R142Q
Description: as §1, §2

[3] = target: T3, cynomolgus monkey FcγRIIa3 extracellular domain, C-terminal His-tag (cynomolgus monkey)
T3 construct: also called cyno FcγRIIa3; FcgRIIa3; not shown: His-tag added to the C-terminus
T3 chain: T1 chain with P95T, T121A, A128S, H133P, D135N
Description: as §1, §2

[4] = target: T4, cynomolgus monkey FcγRIIb extracellular domain, C-terminal His-tag (cynomolgus monkey)
T4 construct: also called cyno FcγRIIb; cynoFcγRIIb; not shown: His-tag added to the C-terminus
T4 chain: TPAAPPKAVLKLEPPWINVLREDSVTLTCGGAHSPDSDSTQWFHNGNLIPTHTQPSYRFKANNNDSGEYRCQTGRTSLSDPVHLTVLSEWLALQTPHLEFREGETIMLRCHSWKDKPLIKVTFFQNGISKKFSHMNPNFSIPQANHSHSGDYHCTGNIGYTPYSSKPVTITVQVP
Description: as §1, §2

[5] = target: T5, human FcγRIIaH extracellular domain, C-terminal His-tag (human, UniProt P12318 34-217)
T5 construct: also called human FcγRIIa (type H); FcgRIIaH; not shown: His-tag added to the C-terminus
T5 sequence: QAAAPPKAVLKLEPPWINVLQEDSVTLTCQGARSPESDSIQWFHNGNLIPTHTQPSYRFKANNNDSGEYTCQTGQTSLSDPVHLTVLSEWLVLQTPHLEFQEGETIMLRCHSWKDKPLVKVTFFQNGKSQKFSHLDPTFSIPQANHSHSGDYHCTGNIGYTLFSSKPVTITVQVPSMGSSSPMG
Description: as §1, §2

[6] = target: T6, human FcγRIIaR extracellular domain, C-terminal His-tag (human, UniProt P12318 34-217)
T6 construct: also called human FcγRIIa (type R); FcgRIIaR; not shown: His-tag added to the C-terminus
T6 chain: T5 sequence with H134R
Description: as §1, §2

[7] = target: T7, human FcγRIIIaV extracellular domain, C-terminal His-tag (human, UniProt P08637 17-208)
T7 construct: also called FcgRIIIaV; not shown: His-tag added to the C-terminus
T7 sequence (P08637 17-208 F176V): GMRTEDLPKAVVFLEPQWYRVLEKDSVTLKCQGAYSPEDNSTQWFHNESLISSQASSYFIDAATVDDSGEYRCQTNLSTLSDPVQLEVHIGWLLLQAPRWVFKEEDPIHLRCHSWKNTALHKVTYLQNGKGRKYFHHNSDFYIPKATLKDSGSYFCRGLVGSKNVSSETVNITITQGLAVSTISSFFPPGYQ
Description: as §1, §2

Binder | Kd [1] [nM] | Kd [2] [nM] | Kd [3] [nM] | Kd [4] [nM] | Kd [5] [nM] | Kd [6] [nM] | Kd [7] [nM]
B1 | 1800 | 1500 | 2500 | 500 | 1200 | 1900 | 10000
B2 | 1900 | 1700 | 3100 | 520 | 1300 | 2200 | 23000
